Residue numbers refer to the chain shown, from its start.
Legend:
Assay in all cases: cell-based or functional assay
[1] = target: hemagglutinin (HA) of virus strain Ck/HK/Yu22/02 (H5N1) (H5N1 avian influenza virus, strain Ck/HK/Yu22/02)
[2] = target: 14 strains of non-H5 viruses (H1~H13, Chicken NDV)
[3] = target: H5 virus strain (fifteen strains of H5N1 viruses)
[4] = target: hemagglutinin (HA) of H5N1 virus strain FJ1.5 (H5N1 avian influenza virus, strain FJ1.5)
[5] = target: hemagglutinin (HA) of H5N1 virus strain GD1.1 (H5N1 avian influenza virus, strain GD1.1)
[6] = target: hemagglutinin (HA) of H5N1 virus strain GD3.1 (H5N1 avian influenza virus, strain GD3.1)
[7] = target: hemagglutinin (HA) of H5N1 virus strain GD4.1 (H5N1 avian influenza virus, strain GD4.1)
[8] = target: hemagglutinin (HA) of H5N1 virus strain HN3.1 (H5N1 avian influenza virus, strain HN3.1)
[9] = target: hemagglutinin (HA) of H5N1 virus strain IDN1.1 (H5N1 avian influenza virus, strain IDN1.1)
[10] = target: hemagglutinin (HA) of H5N1 virus strain IDN3.1 (H5N1 avian influenza virus, strain IDN3.1)
[11] = target: hemagglutinin (HA) of H5N1 virus strain IDN6.1 (H5N1 avian influenza virus, strain IDN6.1)
[12] = target: hemagglutinin (HA) of H5N1 virus strain IDN8.1 (H5N1 avian influenza virus, strain IDN8.1)
[13] = target: hemagglutinin (HA) of H5N1 virus strain Mixed1.1 (H5N1 avian influenza virus, strain Mixed1.1)
[14] = target: hemagglutinin (HA) of H5N1 virus strain QH1.1 (H5N1 avian influenza virus, strain QH1.1)
[15] = target: hemagglutinin (HA) of H5N1 virus strain VNM2-2.1 (H5N1 avian influenza virus, strain VNM2-2.1)
[16] = target: hemagglutinin (HA) of H5N1 virus strain VTM1.1 (H5N1 avian influenza virus, strain VTM1.1)
[17] = target: hemagglutinin (HA) of H5N1 virus strain VTM4.1 (H5N1 avian influenza virus, strain VTM4.1)
[18] = target: hemagglutinin (HA) of H5N1 virus strain YN2.1 (H5N1 avian influenza virus, strain YN2.1)
[19] = target: hemagglutinin (HA) of H5N1 virus strain A1 (H5N1 avian influenza virus, strain A1)
[20] = target: hemagglutinin (HA) of H5N1 virus strain A2 (H5N1 avian influenza virus, strain A2)
[21] = target: hemagglutinin (HA) of H5N1 virus strain A3 (H5N1 avian influenza virus, strain A3)
[22] = target: hemagglutinin (HA) of H5N1 virus strain A6 (H5N1 avian influenza virus, strain A6)
[23] = target: hemagglutinin (HA) of H5N1 virus strain A7 (H5N1 avian influenza virus, strain A7)
[24] = target: hemagglutinin (HA) of H5N1 virus strain A8 (H5N1 avian influenza virus, strain A8)
[25] = target: hemagglutinin (HA) of H5N1 virus strain B1 (H5N1 avian influenza virus, strain B1)
[26] = target: hemagglutinin (HA) of H5N1 virus strain B3 (H5N1 avian influenza virus, strain B3)
[27] = target: hemagglutinin (HA) of H5N1 virus strain B4 (H5N1 avian influenza virus, strain B4)
[28] = target: hemagglutinin (HA) of H5N1 virus strain B6 (H5N1 avian influenza virus, strain B6)
[29] = target: hemagglutinin (HA) of H5N1 virus strain B7 (H5N1 avian influenza virus, strain B7)
[30] = target: hemagglutinin (HA) of H5N1 virus strain B8 (H5N1 avian influenza virus, strain B8)
[31] = target: hemagglutinin (HA) of H5N1 virus strain C2 (H5N1 avian influenza virus, strain C2)
[32] = target: hemagglutinin (HA) of H5N1 virus strain C3 (H5N1 avian influenza virus, strain C3)
[33] = target: hemagglutinin (HA) of H5N1 virus strain D1 (H5N1 avian influenza virus, strain D1)
[34] = target: hemagglutinin (HA) of H5N1 virus strain D2 (H5N1 avian influenza virus, strain D2)
[35] = target: hemagglutinin (HA) of H5N1 virus strain D3 (H5N1 avian influenza virus, strain D3)
[36] = target: hemagglutinin (HA) of H5N1 virus strain E1 (H5N1 avian influenza virus, strain E1)
[37] = target: hemagglutinin (HA) of H5N1 virus strain E2 (H5N1 avian influenza virus, strain E2)
[38] = target: hemagglutinin (HA) of H5N1 virus strain F2 (H5N1 avian influenza virus, strain F2)
[39] = target: hemagglutinin (HA) of H5N1 virus strain F3 (H5N1 avian influenza virus, strain F3)
[40] = target: hemagglutinin (HA) of H5N1 virus strain F4 (H5N1 avian influenza virus, strain F4)
[41] = target: hemagglutinin (HA) of H5N1 virus strain G1 (H5N1 avian influenza virus, strain G1)
[42] = target: hemagglutinin (HA) of H5N1 virus strain H2 (H5N1 avian influenza virus, strain H2)

B1: 13D4 single chain antibody (scFv)
scFv: QVQLQQSGAELMKPGASVKISCKATGYTFSGHWIEWVKQRPGHGLEWIGEILPGSGNIHYNEKFKGKATFAADTSSNTAYMQLSSLTSEDSAVYYCARLGTTAVERDWYFDVWGQGTTVTESLEDPRVPSSNSGGGGSGGGGSGGGGSDIVMTQSQKFMSASVGDRVSVTCKASQNVGTHLAWYQQKPGQSPKALIYSASYRYSGVPDRFTGSGSGTDFTLTISNVQSGDLADYFCQQYNNFPLTFGAGTKLEIKR
hemagglutination inhibition (HI) activity (fold dilution (from 0.18 mg/ml)) [1]: 8

B2: monoclonal antibody 20A11 (antibody, V domains shown)
VH: QVQLQQSGAELMKPGASVKISCKATGYTFSGHWIEWVKQRPGHGLEWIGEILPGSGNIHYNEKFKGKATFAADTSSNTAYMQLSSLTSEDSAVYYCARLGTTAVERDWYFDVWGQGTSVTVSS
VL: DIVMTQSQKFMSASVGDRVSVTCKASQNVGTHLAWYQQKPGQSPKALIYSASYRYSGVPDRFTGSGSGTDFTLTISNVQSGDLADYFCQQYNNFPLTFGAGTKLEIKR
Positive number/total virus number, hemagglutination inhibition assay (of 14 virus strains positive) [2]: 0 | Positive number/total virus number, hemagglutination inhibition assay (of 15 virus strains positive) [3]: 15 | Hamaglutinin inhibition titer [4]: 12800 titer | Neutralization titer [4]: 12800 titer | Hamaglutinin inhibition titer [5]: 12800 titer | Neutralization titer [5]: 12800 titer | Hamaglutinin inhibition titer [6]: 12800 titer | Neutralization titer [6]: 12800 titer | Hamaglutinin inhibition titer [7]: 12800 titer | Neutralization titer [7]: 12800 titer | Hamaglutinin inhibition titer [8]: 12800 titer | Neutralization titer [8]: 6400 titer | Hamaglutinin inhibition titer [9]: 12800 titer | Neutralization titer [9]: 12800 titer | Hamaglutinin inhibition titer [10]: 12800 titer | Neutralization titer [10]: 12800 titer | Hamaglutinin inhibition titer [11]: 12800 titer | Neutralization titer [11]: 12800 titer | Hamaglutinin inhibition titer [12]: 12800 titer | Neutralization titer [12]: 12800 titer | Hamaglutinin inhibition titer [13]: 12800 titer | Neutralization titer [13]: 12800 titer | Hamaglutinin inhibition titer [14]: 12800 titer | Neutralization titer [14]: 12800 titer | Hamaglutinin inhibition titer [15]: 12800 titer | Neutralization titer [15]: 12800 titer | Hamaglutinin inhibition titer [16]: 12800 titer | Neutralization titer [16]: 12800 titer | Hamaglutinin inhibition titer [17]: 12800 titer | Neutralization titer [17]: 12800 titer | Hamaglutinin inhibition titer [18]: 12800 titer | Neutralization titer [18]: 12800 titer

B3: 13D4 chimeric antibody SV (antibody, V domains shown)
VH: B2 VH
VL: B2 VL
HI titer (hemagglutinin inhibition assay) (n (HI titer = 2^n)) [19]: > 8 | HI titer (hemagglutinin inhibition assay) (n (HI titer = 2^n)) [20]: 7 | HI titer (hemagglutinin inhibition assay) (n (HI titer = 2^n)) [21]: 5 | HI titer (hemagglutinin inhibition assay) (n (HI titer = 2^n)) [22]: 5.5 | HI titer (hemagglutinin inhibition assay) (n (HI titer = 2^n)) [23]: 3.5 | HI titer (hemagglutinin inhibition assay) (n (HI titer = 2^n)) [24]: 6 | HI titer (hemagglutinin inhibition assay) (n (HI titer = 2^n)) [25]: > 8 | HI titer (hemagglutinin inhibition assay) (n (HI titer = 2^n)) [26]: 2 | HI titer (hemagglutinin inhibition assay) (n (HI titer = 2^n)) [27]: 4 | HI titer (hemagglutinin inhibition assay) (n (HI titer = 2^n)) [28]: < 8 | HI titer (hemagglutinin inhibition assay) (n (HI titer = 2^n)) [29]: 6.5 | HI titer (hemagglutinin inhibition assay) (n (HI titer = 2^n)) [30]: 6 | HI titer (hemagglutinin inhibition assay) (n (HI titer = 2^n)) [31]: 4 | HI titer (hemagglutinin inhibition assay) (n (HI titer = 2^n)) [32]: 4 | HI titer (hemagglutinin inhibition assay) (n (HI titer = 2^n)) [33]: 5 | HI titer (hemagglutinin inhibition assay) (n (HI titer = 2^n)) [34]: 5 | HI titer (hemagglutinin inhibition assay) (n (HI titer = 2^n)) [35]: 5.5 | HI titer (hemagglutinin inhibition assay) (n (HI titer = 2^n)) [36]: 6 | HI titer (hemagglutinin inhibition assay) (n (HI titer = 2^n)) [37]: 3 | HI titer (hemagglutinin inhibition assay) (n (HI titer = 2^n)) [38]: 5 | HI titer (hemagglutinin inhibition assay) (n (HI titer = 2^n)) [39]: 6.5 | HI titer (hemagglutinin inhibition assay) (n (HI titer = 2^n)) [40]: 1 | HI titer (hemagglutinin inhibition assay) (n (HI titer = 2^n)) [41]: 3 | HI titer (hemagglutinin inhibition assay) (n (HI titer = 2^n)) [42]: 4

B4: 13D4 chimeric antibody LV (antibody, V domains shown)
VH: B2 VH with S118L
VL: B2 VL
HI titer (hemagglutinin inhibition assay) (n (HI titer = 2^n)) [19]: > 8 | HI titer (hemagglutinin inhibition assay) (n (HI titer = 2^n)) [20]: 7 | HI titer (hemagglutinin inhibition assay) (n (HI titer = 2^n)) [21]: 6 | HI titer (hemagglutinin inhibition assay) (n (HI titer = 2^n)) [22]: 6.5 | HI titer (hemagglutinin inhibition assay) (n (HI titer = 2^n)) [23]: 4 | HI titer (hemagglutinin inhibition assay) (n (HI titer = 2^n)) [24]: 7 | HI titer (hemagglutinin inhibition assay) (n (HI titer = 2^n)) [25]: > 8 | HI titer (hemagglutinin inhibition assay) (n (HI titer = 2^n)) [26]: 2 | HI titer (hemagglutinin inhibition assay) (n (HI titer = 2^n)) [27]: 4 | HI titer (hemagglutinin inhibition assay) (n (HI titer = 2^n)) [28]: > 8 | HI titer (hemagglutinin inhibition assay) (n (HI titer = 2^n)) [29]: 6 | HI titer (hemagglutinin inhibition assay) (n (HI titer = 2^n)) [30]: 4 | HI titer (hemagglutinin inhibition assay) (n (HI titer = 2^n)) [31]: 3 | HI titer (hemagglutinin inhibition assay) (n (HI titer = 2^n)) [32]: 4 | HI titer (hemagglutinin inhibition assay) (n (HI titer = 2^n)) [33]: 4 | HI titer (hemagglutinin inhibition assay) (n (HI titer = 2^n)) [34]: 4 | HI titer (hemagglutinin inhibition assay) (n (HI titer = 2^n)) [35]: 4 | HI titer (hemagglutinin inhibition assay) (n (HI titer = 2^n)) [36]: 5.5 | HI titer (hemagglutinin inhibition assay) (n (HI titer = 2^n)) [37]: 3 | HI titer (hemagglutinin inhibition assay) (n (HI titer = 2^n)) [38]: 5.5 | HI titer (hemagglutinin inhibition assay) (n (HI titer = 2^n)) [39]: 6 | HI titer (hemagglutinin inhibition assay) (n (HI titer = 2^n)) [41]: 2 | HI titer (hemagglutinin inhibition assay) (n (HI titer = 2^n)) [42]: 3

B5: 8G9 chimeric antibody (antibody, V domains shown)
VH: QVQLQQPGVELVRPGASVKLSCKASGYTFTSFWMNWVKQRPDQGLEWIGRIDPYDSETHYNQKFKDKAILTVDKSSSTAYMQLSSLTSEDSAVYYCGRGIATLMVLPDYWGQGTSVTVSS
VL: DILMTQSPSSMSVSLGDTVSITCHASQDISSNMGWLQQKPGKSLKGLIYHGTNLEDGVPSRFSGSGSGPDYSLTISSLESEDFADYYCVQYIQFPWTFGGGTKLEIKR
hemagglutination inhibition (HI) activity (fold dilution) [1]: 16

— patent publication US20110311522A1
